Our source for the TF-1 cell proliferation assay IC50 (5 ng/ml human beta-NGF) values is patent publication US20160319027A1.

The assay addresses human TrkA on TF-1 cells (human), P04629. The assay can be described thus: cell-based or functional assay.

Chain of human TrkA on TF-1 cells (human), P04629 (P04629 33-796): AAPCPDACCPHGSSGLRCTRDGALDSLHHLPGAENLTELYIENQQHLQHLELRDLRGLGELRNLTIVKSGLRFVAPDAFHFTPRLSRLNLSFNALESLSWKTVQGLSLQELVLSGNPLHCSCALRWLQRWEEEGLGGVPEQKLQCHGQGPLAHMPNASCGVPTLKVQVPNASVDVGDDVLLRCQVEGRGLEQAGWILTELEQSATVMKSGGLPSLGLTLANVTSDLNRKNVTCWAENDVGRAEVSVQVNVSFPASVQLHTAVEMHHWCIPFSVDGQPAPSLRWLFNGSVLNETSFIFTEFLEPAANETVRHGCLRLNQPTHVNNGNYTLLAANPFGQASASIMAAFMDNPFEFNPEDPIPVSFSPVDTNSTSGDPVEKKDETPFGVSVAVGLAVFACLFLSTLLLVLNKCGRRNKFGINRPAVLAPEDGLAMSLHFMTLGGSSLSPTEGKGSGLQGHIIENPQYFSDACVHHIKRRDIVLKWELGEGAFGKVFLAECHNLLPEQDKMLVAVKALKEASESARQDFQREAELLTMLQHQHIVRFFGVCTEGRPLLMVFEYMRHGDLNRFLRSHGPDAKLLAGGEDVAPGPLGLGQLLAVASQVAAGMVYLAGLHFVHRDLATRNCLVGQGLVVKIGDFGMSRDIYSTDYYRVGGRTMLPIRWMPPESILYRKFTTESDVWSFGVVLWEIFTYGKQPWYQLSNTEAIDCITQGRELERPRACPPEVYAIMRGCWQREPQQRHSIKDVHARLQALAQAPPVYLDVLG

B1: MNAC13 mouse antibody (antibody, mouse IgG1, kappa)
heavy: EVKLVESGGGLVQPGGSLKLSCAASGFTFSTYTMSWARQTPEKRLEWVAYISKGGGSTYYPDTVKGRFTISRDNAKNTLYLQMSSLKSEDTALYYCARGAMYGNDFFYPMDYWGQGTSVTVSSKTTPPSVYPLAPGSAAQTNSMVTLGCLVKGYFPEPVTVTWNSGSLSSGVHTFPAVLESDLYTLSSSVTVPSSPRPSETVTCNVAHPASSTKVDKKIVPRDCGCKPCICTVPEVSSVFIFPPKPKDVLTITLTPKVTCVVVDISKDDPEVQFSWFVDDVEVHTAQTQPREEQFNSTFRSVSELPIMHQDWLNGKEFKCRVNSAAFPAPIEKTISKTKGRPKAPQVYTIPPPKEQMAKDKVSLTCMITDFFPEDITVEWQWNGQPAENYKNTQPIMNTNGSYFVYSKLNVQKSNWEAGNTFTCSVLHEGLHNHHTEKSLSHSPGK
light: QIVLTQSPAIMSASLGEEITLTCSASSSVSYMHWYQQKSGTSPKLLIYTTSNLASGVPSRFSGSGSGTFYSLTISSVEAEDAADYYCHQWSSYPWTFGGGTKLEIKADAAPTVSIFPPSSEQLTSGGASVVCFLNNFYPKDINVKWKIDGSERQNGVLNSWTDQDSKDSTYSMSSTLTLTKDEYERHNSYTCEATHKTSTSPIVKSFNRNEC
For the molecule B1, the TF-1 cell proliferation assay IC50 (5 ng/ml human beta-NGF) was 0.23 µg/mL.
